According to patent US20070148163A1 (Kyowa Kirin, published 2007):
cellulose membrane = not defined here

Columns and labels:
[1] = target: T1, human CD40 expressed on cells (Ramos, T24, Hs 766T, Capan-2) (human, UniProt P25942 21-277); experiment: cell-based or functional assay
[2] = target: T2, 42nd of the 82 13-mer peptides covering the extracellular region of CD40 (cysteine pairing not given here; reading uncertain); experiment: SPOT peptide array (13-mers on cellulose membrane), Western-type detection, spot intensity by LumiImager
T2 construct: also called 42nd peptide
T2 peptide: Ac-CTCEEGWHCTSEA-{cellulose membrane}
Protocol: (§1) The reaction thereafter was carried out based on a conventional Western analysis (see Reineke, U. et al. (2001), “Epitope mapping with synthetic peptides prepared by SPOT synthesis.” Antibody Engineering (Springer Lab Manual) Eds.: Kontermann/Dubel, 433-459, for example). In the analysis, coloring intensity of each spot was quantified using Lumilmager™ (Boehringer-Mannheim Corp.) (FIG. 1A-1, 1A-2, 1B-1 and B-2).

[3] = target: T3, 41st of the 82 13-mer peptides covering the extracellular region of CD40 (cysteine pairing not given here; reading uncertain); experiment: as above
T3 construct: also called 41st peptide
T3 peptide: Ac-TICTCEEGWHCTS-{cellulose membrane}
Protocol: as §1

[4] = target: T1, human CD40 expressed on cells (Ramos, …); experiment: flow cytometry on Ramos cells
[5] = target: T4, 24th of the 82 13-mer peptides covering the extracellular region of CD40 (reading uncertain); experiment: SPOT peptide array (13-mers on cellulose membrane), Western-type detection, spot intensity by LumiImager
T4 construct: also called 24th peptide
T4 peptide: Ac-FLDTWNRETHCHQ-{cellulose membrane}
Protocol: as §1

[6] = target: T5, 21st of the 82 13-mer peptides covering the extracellular region of CD40 (reading uncertain); experiment: as above
T5 construct: also called 21st peptide
T5 peptide: Ac-PCGESEFLDTWNR-{cellulose membrane}
Protocol: as §1

[7] = target: T6, 20th of the 82 13-mer peptides covering the extracellular region of CD40 (cysteine pairing not given here; reading uncertain); experiment: as above
T6 construct: also called 20th peptide
T6 peptide: Ac-CLPCGESEFLDTW-{cellulose membrane}
Protocol: as §1

[8] = target: T7, 22nd of the 82 13-mer peptides covering the extracellular region of CD40 (reading uncertain); experiment: as above
T7 construct: also called 22nd peptide
T7 peptide: Ac-GESEFLDTWNRET-{cellulose membrane}
Protocol: as §1

[9] = target: T8, 23rd of the 82 13-mer peptides covering the extracellular region of CD40 (reading uncertain); experiment: as above
T8 construct: also called 23rd peptide
T8 peptide: Ac-SEFLDTWNRETHC-{cellulose membrane}
Protocol: as §1

[10] = target: T9, CD40mut2 (mutant CD40-FC fusion protein) (UniProt P25942 21-193, limits assumed); experiment: ELISA on mutant CD40-FC fusion protein
T9 construct: Human CD40 implied
T9 sequence (P25942 other isoform, or with tags, fused parts or gaps mutant limits assumed): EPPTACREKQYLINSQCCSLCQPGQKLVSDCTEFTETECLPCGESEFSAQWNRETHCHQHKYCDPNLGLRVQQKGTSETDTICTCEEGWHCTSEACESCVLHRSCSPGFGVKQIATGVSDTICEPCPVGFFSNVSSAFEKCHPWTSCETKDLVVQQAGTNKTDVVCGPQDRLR

[11] = target: T10, 19th of the 82 13-mer peptides covering the extracellular region of CD40 (cysteine pairing not given here; reading uncertain); experiment: SPOT peptide array (13-mers on cellulose membrane), Western-type detection, spot intensity by LumiImager
T10 construct: also called 19th peptide
T10 peptide: Ac-TECLPCGESEFLD-{cellulose membrane}
Protocol: as §1

[12] = target: T11, 18th of the 82 13-mer peptides covering the extracellular region of CD40 (cysteine pairing not given here; reading uncertain); experiment: as above
T11 construct: also called 18th peptide
T11 peptide: Ac-TETECLPCGESEF-{cellulose membrane}
Protocol: as §1

[13] = target: T12, 64th of the 82 13-mer peptides covering the extracellular region of CD40 (reading uncertain); experiment: as above
T12 construct: also called 64th peptide
T12 peptide: Ac-PVGFFSNVSSAFE-{cellulose membrane}
Protocol: as §1

[14] = target: T13, 16th of the 82 13-mer peptides covering the extracellular region of CD40 (cysteine pairing not given here; reading uncertain); experiment: as above
T13 construct: also called 16th peptide
T13 peptide: Ac-CTEFTETECLPCG-{cellulose membrane}
Protocol: as §1

[15] = target: T14, 13th of the 82 13-mer peptides covering the extracellular region of CD40 (reading uncertain); experiment: as above
T14 construct: also called 13th peptide
T14 peptide: Ac-QKLVSDCTEFTET-{cellulose membrane}
Protocol: as §1

[16] = target: T15, 15th of the 82 13-mer peptides covering the extracellular region of CD40 (cysteine pairing not given here; reading uncertain); experiment: as above
T15 construct: also called 15th peptide
T15 peptide: Ac-SDCTEFTETECLP-{cellulose membrane}
Protocol: as §1

[17] = target: T16, 14th of the 82 13-mer peptides covering the extracellular region of CD40 (cysteine pairing not given here; reading uncertain); experiment: as above
T16 construct: also called 14th peptide
T16 peptide: Ac-LVSDCTEFTETEC-{cellulose membrane}
Protocol: as §1

[18] = target: T17, 12th of the 82 13-mer peptides covering the extracellular region of CD40 (reading uncertain); experiment: as above
T17 construct: also called 12th peptide
T17 peptide: Ac-PGQKLVSDCTEFT-{cellulose membrane}
Protocol: as §1

[19] = target: T18, 17th of the 82 13-mer peptides covering the extracellular region of CD40 (cysteine pairing not given here; reading uncertain); experiment: as above
T18 construct: also called 17th peptide
T18 peptide: Ac-EFTETECLPCGES-{cellulose membrane}
Protocol: as §1

T1 sequence (P25942 21-277): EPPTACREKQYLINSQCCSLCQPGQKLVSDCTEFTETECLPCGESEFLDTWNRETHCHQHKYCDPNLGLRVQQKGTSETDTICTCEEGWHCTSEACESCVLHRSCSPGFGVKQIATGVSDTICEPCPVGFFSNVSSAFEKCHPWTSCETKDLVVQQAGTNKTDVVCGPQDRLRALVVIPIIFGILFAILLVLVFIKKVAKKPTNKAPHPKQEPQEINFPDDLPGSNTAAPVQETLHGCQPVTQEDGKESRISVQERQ

B1: KM341-1-19 antibody, constant region converted into IgG1 (antibody, V domains shown)
VH: QVQLQQSGPGLVKPSQTLSLTCAISGDSVSSNSATWNWIRQSPSRDLEWLGRTYYRSKWYRDYVGSVKSRIIINPDTSNNQFSLQLNSVTPEDTAIYYCTRAQWLGGDYPYYYSMDVWGQGTTVTVSS
VL: EIVLTQSPATLSLSPGERATLSCRASQSVSSYLAWYQQKPGQAPRLLIYDASNRATGIPARFSGSGSGTDFTLTISSLEPEDFAVYYCQQRSNTFGPGTKVDIK
[1]
  CD95 expression enhancing activity in Ramos cells, reduction against IgG2: ≥ 10%

B2: KM341-1-19 antibody, constant region converted into IgG4 (antibody, V domains shown)
VH: B1 VH
VL: B1 VL
[1]
  CD95 expression enhancing activity in Ramos cells, reduction against IgG2: ≥ 10%

B3: KM341-1-19 antibody (original IgG2) (antibody)
heavy: QVQLQQSGPGLVKPSQTLSLTCAISGDSVSSNSATWNWIRQSPSRDLEWLGRTYYRSKWYRDYVGSVKSRIIINPDTSNNQFSLQLNSVTPEDTAIYYCTRAQWLGGDYPYYYSMDVWGQGTTVTVSSASTKGPSVFPLAPCSRSTSESTAALGCLVKDYFPEPVTVSWNSGALTSGVHTFPAVLQSSGLYSLSSVVTVPSSNFGTQTYTCNVDHKPSNTKVDKTVERKCCVECPPCPAPPVAGPSVFLFPPKPKDTLMISRTPEVTCVVVDVSHEDPEVQFNWYVDGVEVHNAKTKPREEQFNSTFRVVSVLTVVHQDWLNGKEYKCKVSNKGLPAPIEKTISKTKGQPREPQVYTLPPSREEMTKNQVSLTCLVKGFYPSDIAVEWESNGQPENNYKTTPPMLDSDGSFFLYSKLTVDKSRWQQGNVFSCSVMHEALHNHYTQKSLSLSPGK
VL: B1 VL
notes: Human IgG2; also called original KM341-1-19 antibody
[2]
  binding result: binds
[3]
  binding result: binds

B4: KM341-1-19 antibody, constant region converted into IgG3 (antibody, V domains shown)
VH: B1 VH
VL: B1 VL
[1]
  CD95 expression enhancing activity in Ramos cells, reduction against IgG2: ≥ 10%

B5: 4D11 antibody (original subclass IgG1) (antibody, V domains shown)
VH: QLQLQESGPGLLKPSETLSLTCTVSGGSISSPGYYGGWIRQPPGKGLEWIGSIYKSGSTYHNPSLKSRVTISVDTSKNQFSLKLSSVTAADTAVYYCTRPVVRYFGWFDPWGQGTLVTVSS
VL: AIQLTQSPSSLSASVGDRVTITCRASQGISSALAWYQQKPGKAPKLLIYDASNLESGVPSRFSGSGSGTDFTLTISSLQPEDFATYYCQQFNSYPTFGQGTKVEIK
notes: also called 4D11G1
[4]
  binding result: binds
[5]
  binding result: binds
[6]
  binding result: binds
[7]
  binding result: binds
[8]
  binding result: binds
[9]
  binding result: binds
[3]
  binding result: binds
[10]
  binding result: binds

B6: 4D11G4P (4D11 antibody, IgG4 with S228P) (antibody, V domains shown)
VH: B5 VH
VL: B5 VL
notes: Human IgG4 constant region with point mutation S228P (EU index; vector N5KG4P); also called IgG4P
[4]
  binding result: binds

B7: 4D11 antibody IgG4 (antibody, V domains shown)
VH: B5 VH
VL: B5 VL
notes: Human IgG4 constant region (vector N5KG4), no point mutation; also called 4D11 IgG4
[4]
  binding result: binds

B8: 4D11G4PE (4D11 antibody, IgG4 with S228P and L235E) (antibody, V domains shown)
VH: B5 VH
VL: AIQLTQSPSSLSASVGDRVTITCRASQGISSALAWYQQKPGKAPKLLIYDASNLESGVPSRFSGSGSGTDFTLTISSLQPEDFATYYCQQFNSYPTFGQGTKVEIKR
notes: also called IgG4PE; 4D11 antibody G4PE
[4]
  binding result: binds

B9: 2105 antibody, constant region converted into IgG1 (antibody, V domains shown)
VH: EVQLVESGGGLVQPGRSLRLSCAASGFTFDDYAMHWVRQAPGKGLEWVSGISWNSGSLVHADSVKGRFTISRDNAKNSLYLQMNSLRAEDTALYYCARDRLFRGVRYYGMDVWGQGTTVTVSS
VL: EIVLTQSPATLSLSPGERATLSCRASQSVSSYLAWYQQKPGQAPRLLIYDASNRATGIPARFSGSGSGTDFTLTISSLEPEDFAVYYCQQRSHWLTFGGGTKVEIK
[1]
  CD95 expression enhancing activity in Ramos cells, reduction against IgG2: ≥ 10%

B10: 2105 antibody, constant region converted into IgG3 (antibody, V domains shown)
VH: B9 VH
VL: B9 VL
[1]
  CD95 expression enhancing activity in Ramos cells, reduction against IgG2: ≥ 10%

B11: 2105 antibody (original IgG2) (antibody, V domains shown)
VH: B9 VH
VL: B9 VL
[11]
  binding result: binds
[12]
  binding result: binds
[13]
  binding result: binds
[14]
  binding result: binds
[15]
  binding result: binds
[16]
  binding result: binds
[17]
  binding result: binds
[6]
  binding result: binds
[18]
  binding result: binds
[7]
  binding result: binds
[8]
  binding result: binds
[9]
  binding result: binds
[19]
  binding result: binds

B12: 2105 antibody, constant region converted into IgG4 (antibody, V domains shown)
VH: B9 VH
VL: B9 VL
[1]
  CD95 expression enhancing activity in Ramos cells, reduction against IgG2: ≥ 10%
